Values quoted from earlier work as cited in publication PMC7395068, “The evolution of strategies to minimise the risk of human drug-induced liver injury (DILI) in drug discovery and development” (Archives of Toxicology, 2020).

B1: pegademase bovine (protein, UniProt P56658 2-363, looked up)
Adenosine deaminase: AQTPAFNKPKVELHVHLDGAIKPETILYYGRKRGIALPADTPEELQNIIGMDKPLSLPEFLAKFDYYMPAIAGCREAVKRIAYEFVEMKAKDGVVYVEVRYSPHLLANSKVEPIPWNQAEGDLTPDEVVSLVNQGLQEGERDFGVKVRSILCCMRHQPSWSSEVVELCKKYREQTVVAIDLAGDETIEGSSLFPGHVKAYAEAVKSGVHRTVHAGEVGSANVVKEAVDTLKTERLGHGYHTLEDATLYNRLRQENMHFEVCPWSSYLTGAWKPDTEHPVVRFKNDQVNYSLNTDDPLIFKSTLDTDYQMTKNEMGFTEEEFKRLNINAAKSSFLPEDEKKELLDLLYKAYGMPSPASAEQCL
modifications: PEG conjugate
B2: tenecteplase (protein, UniProt P00750 36-562, looked up, variant T103N N117Q K296A H297A R298A R299A)
Tissue-type plasminogen …: SYQVICRDEKTQMIYQQHQSWLRPVLRSNRVEYCWCNSGRAQCHSVPVKSCSEPRCFNGGTCQQALYFSDFVCQCPEGFAGKCCEIDTRATCYEDQGISYRGNWSTAESGAECTNWQSSALAQKPYSGRRPDAIRLGLGNHNYCRNPDRDSKPWCYVFKAGKYSSEFCSTPACSEGNSDCYFGNGSAYRGTHSLTESGASCLPWNSMILIGKVYTAQNPSAQALGLGKHNYCRNPDGDAKPWCHVLKNRRLTWEYCDVPSCSTCGLRQYSQPQFRIKGGLFADIASHPWQAAIFAAAAASPGERFLCGGILISSCWILSAAHCFQERFPPHHLTVILGRTYRVVPGEEEQKFEVEKYIVHKEFDDDTYDNDIALLQLKSDSSRCAQESSVVRTVCLPPADLQLPDWTECELSGYGKHEALSPFYSERLKEAHVRLYPSSRCTSQHLLNRTVTDNMLCAGDTRSGGPQANLHDACQGDSGGPLVCLNDGRMTLVGIISWGLGCGQKDVPGVYTKVTNYLDWIRDNMRP
B3: laronidase (protein, UniProt P35475 28-653, looked up)
Alpha-L-iduronidase: APHLVHVDAARALWPLRRFWRSTGFCPPLPHSQADQYVLSWDQQLNLAYVGAVPHRGIKQVRTHWLLELVTTRGSTGRGLSYNFTHLDGYLDLLRENQLLPGFELMGSASGHFTDFEDKQQVFEWKDLVSSLARRYIGRYGLAHVSKWNFETWNEPDHHDFDNVSMTMQGFLNYYDACSEGLRAASPALRLGGPGDSFHTPPRSPLSWGLLRHCHDGTNFFTGEAGVRLDYISLHRKGARSSISILEQEKVVAQQIRQLFPKFADTPIYNDEADPLVGWSLPQPWRADVTYAAMVVKVIAQHQNLLLANTTSAFPYALLSNDNAFLSYHPHPFAQRTLTARFQVNNTRPPHVQLLRKPVLTAMGLLALLDEEQLWAEVSQAGTVLDSNHTVGVLASAHRPQGPADAWRAAVLIYASDDTRAHPNRSVAVTLRLRGVPPGPGLVYVTRYLDNGLCSPDGEWRRLGRPVFPTAEQFRRMRAAEDPVAAAPRPLPAGGRLTLRPALRLPSLLLVHVCARPEKPPGQVTRLRALPLTQGQLVLVWSDEHVGSKCLWTYEIQFSQDGKAYTPVSRKPSTFNLFVFSPDTGAVSGSYRVRALDYWARPGPFSDPVPYLEVPVPRGPPSPGNP
B4: rasburicase (protein, UniProt Q00511 2-302, looked up)
Uricase: SAVKAARYGKDNVRVYKVHKDEKTGVQTVYEMTVCVLLEGEIETSYTKADNSVIVATDSIKNTIYITAKQNPVTPPELFGSILGTHFIEKYNHIHAAHVNIVCHRWTRMDIDGKPHPHSFIRDSEEKRNVQVDVVEGKGIDIKSSLSGLTVLKSTNSQFWGFLRDEYTTLKETWDRILSTDVDATWQWKNFSGLQEVRSHVPKFDATWATAREVTLKTFAEDNSASVQATMYKMAEQILARQQLIETVEYSLPNKHYFEIDLSWHKGLQNTGKNAEVFAPQSDPNGLIKCTVGRSSLKSKL
B5: idursulfase (protein, UniProt P22304 34-455; P22304 456-550, looked up)
Iduronate 2-sulfatase 42 kDa …: TDALNVLLIIVDDLRPSLGCYGDKLVRSPNIDQLASHSLLFQNAFAQQAVCAPSRVSFLTGRRPDTTRLYDFNSYWRVHAGNFSTIPQYFKENGYVTMSVGKVFHPGISSNHTDDSPYSWSFPPYHPSSEKYENTKTCRGPDGELHANLLCPVDVLDVPEGTLPDKQSTEQAIQLLEKMKTSASPFFLAVGYHKPHIPFRYPKEFQKLYPLENITLAPDPEVPDGLPPVAYNPWMDIRQREDVQALNISVPYGPIPVDFQRKIRQSYFASVSYLDTQVGRLLSALDDLQLANSTIIAFTSDHGWALGEHGEWAKYSNFDVATHVPLIFYVPGRTASLPEAGEKLFPYLDPFDSASQLMEPGRQSMDLVELVSLFPTLAGLAGLQVPPRCPVPSFHVELCREGKNLLKHFRFRDLEEDPYLPG
Iduronate 2-sulfatase 14 kDa …: NPRELIAYSQYPRPSDIPQWNSDKPSLKDIKIMGYSIRTIDYRYTVWVGFNPDEFLANFSDIHAGELYFVDSDPLQDHNMYNDSQGGDLFQLLMP
B6: interferon gamma-1b (protein, UniProt P01579 24-161, looked up)
Interferon gamma: QDPYVKEAENLKKYFNAGHSDVADNGTLFLGILKNWKEESDRKIMQSQIVSFYFKLFKNFKDDQSIQKSVETIKEDMNVKFFNSNKKKRDDFEKLTNYSVTDLNVQRKAIHELIQVMAELSPAAKTGKRKRSQMLFRG
B7: pegvisomant (protein, UniProt P01241 27-217, looked up, variant H18D H21N Q22N F25S K41I Y42H L45W Q46W G120K R167N D171S E174S I179T)
Somatotropin: FPTIPLSRLFDNAMLRADRLNNLASDTYQEFEEAYIPKEQIHSFWWNPQTSLCFSESIPTPSNREETQQKSNLELLRISLLLIQSWLEPVQFLRSVFANSLVYGASDSNVYDLLKDLEEKIQTLMGRLEDGSPRTGQIFKQTYSKFDTNSHNDDALLKNYGLLYCFNKDMSKVSTFLRTVQCRSVEGSCGF
modifications: PEGylated
B8: pegaspargase (protein, UniProt P00805 23-348, looked up)
L-asparaginase 2: LPNITILATGGTIAGGGDSATKSNYTVGKVGVENLVNAVPQLKDIANVKGEQVVNIGSQDMNDNVWLTLAKKINTDCDKTDGFVITHGTDTMEETAYFLDLTVKCDKPVVMVGAMRPSTSMSADGPFNLYNAVVTAADKASANRGVLVVMNDTVLDGRDVTKTNTTDVATFKSVNYGPLGYIHNGKIDYQRTPARKHTSDTPFDVSKLNELPKVGIVYNYANASDLPAKALVDAGYDGIVSAGVGNGNLYKSVFDTLATAAKTGTAVVRSSRVPTGATTQDAEVDDAKYGFVASGTLNPQKARVLLQLALTQTKDPQQIQQIFNQY
modifications: PEG conjugate
B9: pegfilgrastim (protein, UniProt P09919 31-207, looked up)
Granulocyte …: TPLGPASSLPQSFLLKCLEQVRKIQGDGAALQEKLVSECATYKLCHPEELVLLGHSLGIPWAPLSSCPSQALQLAGCLSQLHSGLFLYQGLLQALEGISPELGPTLDTLQLDVADFATTIWQQMEELGMAPALQPTQGAMPAFASAFQRRAGGVLVASHLQSFLEVSYRVLRHLAQP
modifications: N-terminal Met; PEG
B10: imiglucerase (protein, UniProt P04062 40-536, looked up, variant R495H)
Lysosomal acid …: ARPCIPKSFGYSSVVCVCNATYCDSFDPPTFPALGTFSRYESTRSGRRMELSMGPIQANHTGTGLLLTLQPEQKFQKVKGFGGAMTDAAALNILALSPPAQNLLLKSYFSEEGIGYNIIRVPMASCDFSIRTYTYADTPDDFQLHNFSLPEEDTKLKIPLIHRALQLAQRPVSLLASPWTSPTWLKTNGAVNGKGSLKGQPGDIYHQTWARYFVKFLDAYAEHKLQFWAVTAENEPSAGLLSGYPFQCLGFTPEHQRDFIARDLGPTLANSTHHNVRLLMLDDQRLLLPHWAKVVLTDPEAAKYVHGIAVHWYLDFLAPAKATLGETHRLFPNTMLFASEACVGSKFWEQSVRLGSWDRGMQYSHSIITNLLYHVVGWTDWNLALNPEGGPNWVRNFVDSPIIVDITKDTFYKQPMFYHLGHFSKFIPEGSQRVGLVASQKNDLDAVALMHPDGSAVVVVLNRSSKDVPLTIKDPAVGFLETISPGYSIHTYLWHRQ

Settings: in vivo

For B1, which “DILI +VE (5-8), DILI -VE (-4)” value is on record?
The value was “-VE”.

What about the DILI severity category of the same molecule?
Its DILI severity category is “vNo-DILI-Concern”.

Which results are given for B2?
DILI +VE (5-8), DILI -VE (-4): -VE; DILI severity category: vNo-DILI-Concern

Which “DILI +VE (5-8), DILI -VE (-4)” value does the source give for B3 here?
The value was “-VE”.

What about the DILI severity category of the same molecule?
Its DILI severity category is “Ambiguous DILI-concern”.

For B4, which “DILI +VE (5-8), DILI -VE (-4)” value is on record?
The value was “-VE”.

What about the DILI severity category of the same molecule?
Its DILI severity category is “vNo-DILI-Concern”.

For B5, which “DILI +VE (5-8), DILI -VE (-4)” value is on record?
Its value is “-VE”.

What about the DILI severity category of the same molecule?
The DILI severity category was “vNo-DILI-Concern”.

What does the source list for B6?
DILI +VE (5-8), DILI -VE (-4): -VE; DILI severity category: Ambiguous DILI-concern

Which “DILI +VE (5-8), DILI -VE (-4)” value does the source give for B7 here?
The value was “-VE”.

And the DILI severity category?
The DILI severity category was “Ambiguous DILI-concern”.

For B8, which “DILI +VE (5-8), DILI -VE (-4)” value is on record?
The value was “+VE”.

What about the DILI severity category of the same molecule?
Its DILI severity category is “vLess-DILI-Concern”.

Which “DILI +VE (5-8), DILI -VE (-4)” value does the source give for B9 here?
The value was “-VE”.

What about the DILI severity category of the same molecule?
Its DILI severity category is “vNo-DILI-Concern”.

With B10 as the molecule, how does the “DILI +VE (5-8), DILI -VE (-4)” value read?
The value was “-VE”.

And the DILI severity category?
The DILI severity category was “vNo-DILI-Concern”.
